Key:
[1] = target: T1, human PD-L1-Fc fusion protein (Sino Biological Cat #10084-H02H) (human, UniProt Q9NZQ7 19-239); assay: competition ELISA, PD1-Fc (1 ug/mL) coated, biotinylated PD-L1-Fc mixed with antibody, HRP neutravidin; blocked ligand PD1-Fc
T1 construct: bought; not shown: Fc part of the bought fusion

[2] = target: T2, human PD-L1 expressed on cell surface (human, UniProt Q9NZQ7 19-290); assay: cell-based or functional assay
[3] = target: T2, human PD-L1 expressed on cell surface; assay: cell ELISA on HCC827 cells fixed with 4% paraformaldehyde, absorbance at 450 nm
[4] = target: T3, human TIM3 expressed on HEK293F cells (human, UniProt Q8TDQ0 22-301); assay: flow cytometry on transfected HEK293F cells
T3 construct: whole, on cells

[5] = target: T4, human CTLA4 expressed on HEK293F cells (human, UniProt P16410 36-223); assay: flow cytometry on transfected HEK293F cells
T4 construct: whole, on cells
T4 sequence (P16410 36-223): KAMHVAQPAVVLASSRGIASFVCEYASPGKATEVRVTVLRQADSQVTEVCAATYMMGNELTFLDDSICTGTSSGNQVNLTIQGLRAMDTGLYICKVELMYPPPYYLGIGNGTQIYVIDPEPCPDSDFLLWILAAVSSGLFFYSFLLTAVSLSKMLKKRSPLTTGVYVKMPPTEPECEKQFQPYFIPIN

[6] = target: T5, human PD1 expressed on HEK293F cells (human, UniProt Q15116 25-288); assay: flow cytometry on transfected HEK293F cells
T5 construct: whole, on cells
T5 sequence (Q15116 25-288): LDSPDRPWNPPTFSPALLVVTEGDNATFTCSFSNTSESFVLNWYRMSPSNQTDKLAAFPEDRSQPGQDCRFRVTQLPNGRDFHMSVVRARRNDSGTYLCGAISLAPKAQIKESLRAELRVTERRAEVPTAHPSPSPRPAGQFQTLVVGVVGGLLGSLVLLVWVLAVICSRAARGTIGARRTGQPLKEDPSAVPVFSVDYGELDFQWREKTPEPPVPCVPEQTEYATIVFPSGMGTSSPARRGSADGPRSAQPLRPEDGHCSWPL

[7] = target: T6, human B7-H3 expressed on HEK293F cells (human, UniProt Q5ZPR3 29-534); assay: flow cytometry on transfected HEK293F cells
T6 construct: whole, on cells
T6 sequence (looked up): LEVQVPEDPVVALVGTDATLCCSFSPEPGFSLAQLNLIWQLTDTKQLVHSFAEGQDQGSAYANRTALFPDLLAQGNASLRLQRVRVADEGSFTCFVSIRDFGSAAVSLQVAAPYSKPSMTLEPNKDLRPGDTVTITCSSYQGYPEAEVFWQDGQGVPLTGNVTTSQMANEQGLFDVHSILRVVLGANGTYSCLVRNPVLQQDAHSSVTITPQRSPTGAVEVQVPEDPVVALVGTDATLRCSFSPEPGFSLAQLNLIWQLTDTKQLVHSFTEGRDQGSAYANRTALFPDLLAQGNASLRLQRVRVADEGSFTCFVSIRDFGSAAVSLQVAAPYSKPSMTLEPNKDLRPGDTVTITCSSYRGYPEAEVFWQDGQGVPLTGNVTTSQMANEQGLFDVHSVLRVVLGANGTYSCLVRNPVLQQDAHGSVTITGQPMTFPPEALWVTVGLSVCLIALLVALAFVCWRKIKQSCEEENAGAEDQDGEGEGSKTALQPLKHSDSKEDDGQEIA

[8] = target: T2, human PD-L1 expressed on cell surface; assay: flow cytometry, HEK293F cells transiently expressing the target, 100 nM antibody, PE anti-human Fc; Mean (PE-A against FITC-A, GFP surrogate)
[9] = target: T5, human PD1 expressed on HEK293F cells; assay: as above
[10] = target: T7, rhesus PD-L1 expressed on HEK293F cells (rhesus, UniProt F6VEW6 19-290); assay: as above
T7 construct: whole, on cells

[11] = target: T2, human PD-L1 expressed on cell surface; assay: flow cytometry on stable cell line 293T-002 expressing PD-L1; 293T-002 cells expressing PD-L1, flow cytometry
[12] = target: T2, human PD-L1 expressed on cell surface; assay: blocking by flow cytometry, HEK293F cells expressing full-length human PD-L1, 100 nM antibody then 100 nM biotinylated PD1-His (blocked ligand), Alexa fluor 633 streptavidin; isotype control panel Q2 35.1%
[13] = target: T3, human TIM3 expressed on HEK293F cells; assay: flow cytometry, HEK293F cells transiently expressing the target, 100 nM antibody, PE anti-human Fc; Mean (PE-A against FITC-A, GFP surrogate)
[14] = target: T4, human CTLA4 expressed on HEK293F cells; assay: as above
[15] = target: T8, human LAG3 expressed on HEK293F cells (human, UniProt P18627 23-525); assay: as above
T8 construct: whole, on cells
T8 sequence (looked up): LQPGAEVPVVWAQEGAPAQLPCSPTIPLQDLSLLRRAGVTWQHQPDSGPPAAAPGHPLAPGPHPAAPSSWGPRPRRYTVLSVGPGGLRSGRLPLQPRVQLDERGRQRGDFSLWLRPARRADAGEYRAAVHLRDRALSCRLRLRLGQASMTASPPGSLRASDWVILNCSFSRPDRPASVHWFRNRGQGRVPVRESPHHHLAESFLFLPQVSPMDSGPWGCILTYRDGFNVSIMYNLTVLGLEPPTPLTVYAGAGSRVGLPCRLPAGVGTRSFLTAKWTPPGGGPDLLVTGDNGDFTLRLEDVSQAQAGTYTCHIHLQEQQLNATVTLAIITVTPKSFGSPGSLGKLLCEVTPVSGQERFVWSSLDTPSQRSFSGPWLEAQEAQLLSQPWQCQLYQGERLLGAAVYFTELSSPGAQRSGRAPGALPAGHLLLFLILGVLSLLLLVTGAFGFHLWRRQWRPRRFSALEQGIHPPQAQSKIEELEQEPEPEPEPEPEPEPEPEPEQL

[16] = target: T1, human PD-L1-Fc fusion protein (Sino …); assay: SPR (Biacore T200), human PD-L1-Fc immobilized (300 RU), IgG in solution

T1 sequence (Q9NZQ7 19-239 limits assumed): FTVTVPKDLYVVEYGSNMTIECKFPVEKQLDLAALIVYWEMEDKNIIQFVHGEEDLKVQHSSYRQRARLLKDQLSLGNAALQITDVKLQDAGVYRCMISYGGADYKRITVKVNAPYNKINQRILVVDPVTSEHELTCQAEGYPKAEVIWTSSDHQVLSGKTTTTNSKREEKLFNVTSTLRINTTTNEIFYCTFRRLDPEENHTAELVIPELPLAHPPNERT
T2 sequence (Q9NZQ7 19-290): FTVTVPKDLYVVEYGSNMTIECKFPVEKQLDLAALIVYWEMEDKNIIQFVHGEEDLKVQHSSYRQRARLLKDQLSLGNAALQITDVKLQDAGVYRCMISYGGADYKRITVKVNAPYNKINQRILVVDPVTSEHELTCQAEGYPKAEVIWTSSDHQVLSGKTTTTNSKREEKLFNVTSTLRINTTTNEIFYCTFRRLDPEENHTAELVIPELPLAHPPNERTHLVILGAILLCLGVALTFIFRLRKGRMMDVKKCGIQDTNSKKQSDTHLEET

B1: TY21421 (antibody, V domains shown)
VH: EVQLVESGGGLVQPGGSLRLSCAASGYSISSGYYWGWIRQAPGKGLEWIGIIYPSGGGTNYAQKFQGRVTISRDNSKNTLYLQLNSLRAEDTAVYYCARGGGLGFDYWGQGTLVTVSS
VL: DIQLTQSPSSLSASVGDRVTITCRASQSIPSFLNWYQQKPGKAPKLLIYAASSLQSGVPSRFSGSGSGTDFTLTISSLQPEDFATYYCQHYISWPRQFTFGQGTKVEIKR
notes: IgG1 (wild type) made from Fab B15041, from HEK293F cells
- IC50 (read off the curve) [1]: ~6000 pM
- Relative luminescence units (RLU), Promega PD1/PD-L1 reporter gene assay; EC50 [2]: 390 pM
- EC50 [3]: 300 pM
- binding result [4]: no binding (tested: 100 nM)
- binding result [5]: no binding (tested: 100 nM)
- binding result [6]: no binding (tested: 100 nM)
- binding result [7]: no binding (tested: 100 nM)
- Mean [8]: 170000
- Mean [9]: 6980
- Mean [10]: 184000
- EC50 [11]: 1080 pM
- Q2 (percent of cells positive for GFP and for the APC signal of PD1-His, antibody present) [12]: 0.27%
- Mean [13]: 8100
- Mean [14]: 4900
- Mean [15]: 5850
- Kd [16]: 8.63 pM
- koff [16]: 5.73e-05 s⁻¹
- kon [16]: 6.64e+06 M⁻¹ s⁻¹

Reference: patent publication US20210122824A1 (ADAGENE, published 2021)
